Assay: yeast display, Sf9 membrane polyspecificity reagent, FACS + sequencing; frameworks hold sequencing errors
How it was run: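 After 36–48 hours of galactose induction, yeast (Saccharomyces cerevisiae BJ5465) displaying a synthetic nanobody library were stained at 4 °C for 1 hour with 10% biotinylated, detergent-solubilized Sf9 membrane reagent. Streptavidin microbeads enriched the stained cells before FACS sorting into low and high (top ~1%) gates on anti-HA and streptavidin fluorescence. Each clone's polyreactivity label reflects its gate of origin.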

Sequence	polyreactivity (PSR sort gate)
QVQLVESGGGLVQAGGSLRLSCAASGRTFGWYAMGWYRQAPGKERELVASITQRGGRTYYADSVKGRFTISRDNAKNTVYLQMNSLKPEDTAVYYCAAKTSPGMYYWGQGTQVTVSS	high polyreactivity
QVQLVESGGGLVQAGGSLRLSCAASGRTFGWYTMGRYRQAPGKEREMVAGISSSGGSTYYADSVKGRFTISRDNAKNTVYLQMNSMKPEDTAVYYFARETYPHGLYYRPYDYWGQGTQVTVSS	low polyreactivity
QVQLVESGGGLVQAGGSLRLSCAASGRTFGYNAMGWYRQAPGKEREFVAAISGSGGRTYYADSVKGRFTISRDNAKNTVYLQMNSQKPEDTAVYYCAAGFGDGPGNGYYTRYSWDDDYWGQGTQVTVSS	low polyreactivity
QVQLVESGGGLVQAGGSLRLSCAASGRTFGYNAMGWYRQAPGKERELVAAITSGGGTKYADSVKGRFTISRDNAKNTVYLQMNSLKPEDTAVYYCAATYLYEWSRFVYDGLYYWGQGTQVTVSS	low polyreactivity
QVQLVESGGGLVQAGGSLRLSCAASGRTFGYNAMGWYRQAPGKERELVATISSSTVSTSYADSVKGRFTISRDNAKNTVYLQMNSLKPEDPAVYYCNARSRVSPTERVPYDSWGQGTQVTVSS	low polyreactivity
QVQLVESGGGLVQAGGSLRLSCAASGRTFGYNAMGWYRQAPGTERELVAAIRTIGDSTYYADSVKGRFTISRDNAKNTVYLQMNILKPVDTSVYYCAARKLRSRFDYWGQGTQVTVSS	high polyreactivity
QVQLVESGGGLVQAGGSLRLSCAASGRTFGYNGMGWYRQAPGKERELVAAINSGGNTNYADSVKGRFTISRDNAKNTVYLQMNSLKPEDTSVYYCAKYGTLYEPVPNEYDYWGQGTQVTVSS	low polyreactivity
QVQLVESGGGLVQAGGSLRLSCAASGRTFGYNTMGWYRQAPGKERELVARITWSGASTYYADSVKGRFTISRDNAKNTVYLQMNSLKPEDTAVYYCNTAYTVSWRSPYDYWGQGTQVTVSS	high polyreactivity
QVQLVESGGGLVQAGGSLRLSCAASGRTFGYNTMGWYRQAPGKERELVATISRGGSTYYADSVKGRFTISRDNAKNTVYLQMNSLKPEDTAVYYCRYQSRFRYDYWGQGTQVTVSS	high polyreactivity
QVQLVESGGGLVQAGGSLRLSCAASGRTFGYNTMGWYRQQPGKEREFVAAINYSGGSTYYADSVKGRFTISRDYGKNTVYLQMNSLKPEDTAVYYCNAKPRWYVPYDYWGQGTQVTVSS	high polyreactivity
QVQLVESGGGLVQAGGSLRLSCAASGRTFGYNVMGWYRQAPGKARELVAGIRYSGGSTYYADSVKGRFTISRDNAKNTVYLQMNSLKPEDTAVYYCHAVDRNQYDYWGQGTQVTVSS	high polyreactivity
QVQLVESGGGLVQAGGSLRLSCAASGRTFGYYAMGWYRKAPGKERELVAAISWRGTSTYYADSVKGRFTISRDNAKNTVYLQMNSLKPEDTAVYYCAVGRTVAHRFIAGDYWGQGTQVTVSS	high polyreactivity
QVQLVESGGGLVQAGGSLRLSCAASGRTFGYYAMGWYRQAPGKEREFVAAISHSAGSTSYADSVKGRFTISRDNAKNTVYLQMNSLKPEDTAVYYCAADNPWYEMDYWGQGTQVTVSS	low polyreactivity
QVQLVESGGGLVQAGGSLRLSCAASGRTFGYYAMGWYRQAPGKERELVAAISSSGGSTYYADSVKGRFTISRDNAKNTVYLQMNSLKPEDTAVYYCAARFANGGGYWGQGTQVTVSS	high polyreactivity
QVQLVESGGGLVQAGGSLRLSCAASGRTFGYYAMGWYRQAPGKERELVATITFGGGSTYYADSVKGRFTISRDNAKNTVYLQMNSLKPEDTAVYYCAADTSVHSEVDYWGQGTQVTVSS	low polyreactivity
QVQLVESGGGLVQAGGSLRLSCAASGRTFGYYAMGWYRQAPGQERELVAAISSGGGTYYADSVKGRFTISRDNAKNTVYVQMNSLKPEDTAVYYCAATGWVYWGQFDYWGEGTQVTVSS	low polyreactivity

Sequence	polyreactivity (PSR sort gate)
QVQLVESGGGLVQAGGSLRLSCAASGRTFGYYAMGWYRQATGKERELVAAISWSDSGTYYADSVKGRFTISRDNAKNTVYLQMNSLKPEDTAVYYCAKDEPYFVFRDTYDYWGQGTQVTVSS	high polyreactivity
QVQLVESGGGLVQAGGSLRLSCAASGRTFGYYTMGWYRQAPGKERELVAAITSSGGSTYYADSVKGRFTISRDNAKNTVYLQMNSLKPEDTAVDYCAARAAYYFLYSAMYYWGQGTQVTVSS	high polyreactivity
QVQLVESGGGLVQAGGSLRLSCAASGRTFGYYTMGWYRQAPGKERELVAAITWSGSTYYADSVKGRFTISRDNAKNTVYLQMNSLKPEDTAVYYCAVEIYYFVYGISYDYWGQGTQVTVSS	high polyreactivity
QVQLVESGGGLVQAGGSLRLSCAASGRTFGYYTMGWYRQAPGKEWELVATITRGGTTKYADSVKGRFTISRDNAKNTVYLQMNSLKPEDTAVYYCNARERGSRQYTFDYWGQGTQVTVSS	high polyreactivity
QVQLVESGGGLVQAGGSLRLSCAASGRTFGYYVMGWSRQAPGKETELVAAISNTDSTYYADSVKGRFTISRDNAKNTVYLQMNSLKPEDTAVYYCARDDAYSDFDYDYWGQGTQVTVSS	low polyreactivity
QVQLVESGGGLVQAGGSLRLSCAASGRTFHIYAMGWYRQAPGKERELVAAIRGRSGSTYYADSVKGRFTISRDNAKNTVYLQLNSLKPEDTAVYYCAVGRYPYGSARYRFDYWGQGTQVTVSS	high polyreactivity
QVQLVESGGGLVQAGGSLRLSCAASGRTFHNYAMGWYRQAPGKEREFVAVITGSGGRTYYADSVKGRFTISRDNAKNTVYLQMNSLKPEDTAVYYCNRVSRYYLYDYWGQGTQVTVSS	high polyreactivity
QVQLVESGGGLVQAGGSLRLSCAASGRTFHPYAMGWYRQAPGKERELVAAITISTNYADSVKGRFTISRDNAKNTVSLQMNSVKPEDTAVYYCNADFVRPSWARGRNNGLYYWGQGTQVTVSS	low polyreactivity
QVQLVESGGGLVQAGGSLRLSCAASGRTFHPYAMGWYRQAPGKERELVAAITSIGGSTFYADSVKGRFTISRDNAKNNVYLQLTSLKPEDTAVYFCNAESSYYYGTAAYEYWGQGTQVSVSS	low polyreactivity
QVQLVESGGGLVQAGGSLRLSCAASGRTFHRYVMGWYRQAPGKERELVAAITRSGGITYYADSVKGRFTISRDNAKNTVYLQMNSLKPEDTAVYYCAKDDQTASGFDYWGQGTQVTVSS	low polyreactivity
QVQLVESGGGLVQAGGSLRLSCAASGRTFHSYAMGWYRQAPGKERELVAAITSSGGSTYYADSVKGRFTISRDNAKNTVYLQMNSLKPEDTAVYYGNAYVRYGYGYYYWGQGTQVTVSS	high polyreactivity
QVQLVESGGGLVQAGGSLRLSCAASGRTFHWYTLGWYRQAPGKEREFVAGINWSGARTYYADSVKGRFTISRDNAKNTVYLQMNSLKPEDTAVYYCNKRDRYRLYGYNYWGQGTQVTVSS	high polyreactivity
QVQLVESGGGLVQAGGSLRLSCAASGRTFHYYTMGWYRQAPGKERELVAAISQSGGRTYYADSVKGRFTISRDNAKNTVYLQMNSLKPEDTAVYYCAAVSWRVISDYRIVGYDYWGQGTQVTVSS	low polyreactivity
QVQLVESGGGLVQAGGSLRLSCAASGRTFIANAMGWYRQAPGKERELVAVITLNGGSTYYADSVKGRFTISRDNAKNTVYLQMNSLKPEDTAVYYCAAGRYYKLRATHGYWGQGTQVTVSS	low polyreactivity
QVQLVESGGGLVQAGGSLRLSCAASGRTFIGYAMGWYRQAPGKERELVATISVSGGSTYYADSVKGRFTISRDNAKNTVYLQMNSLKPEDTAVYYCAKAYLRFYDGPYDYWGQGTQVTVSS	low polyreactivity
QVQLVESGGGLVQAGGSLRLSCAASGRTFIINTMGWYRQAPGKERELVAAISKNGATTNYADSVKGRFTISSDNAKNSVYLQMNSLKPEDTAVYYCNARYSGYLRLDYWGQGTQVTVSS	low polyreactivity

— the nanobody polyreactivity screen of Harvey et al. (2022)
